40 molecules from US20150344570A1 (published 2015) can be followed below.

The target in this assay is T1, FcγRIa (human, UniProt P12314 16-292).
T1 construct: extracellular domain; soluble His-tagged extracellular domain expressed in FreeStyle293 cells, used as analyte in Biacore; also called FcgRI; CD64
In words: SPR (Biacore), captured antibody, FcγRIa analyte; relative to GpH7-B3/GpL16-k0.

T1 sequence (P12314 16-292): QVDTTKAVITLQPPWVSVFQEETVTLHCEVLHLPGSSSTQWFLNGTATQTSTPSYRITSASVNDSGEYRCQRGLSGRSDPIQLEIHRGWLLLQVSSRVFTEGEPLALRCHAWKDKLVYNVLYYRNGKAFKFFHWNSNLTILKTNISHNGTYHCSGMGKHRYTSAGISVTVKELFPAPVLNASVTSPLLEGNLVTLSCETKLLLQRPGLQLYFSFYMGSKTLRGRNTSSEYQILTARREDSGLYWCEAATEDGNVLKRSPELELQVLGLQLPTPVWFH

B1: GpH7-B3 variant H268_18N/GpL16-k0 (antibody, human IgG1, kappa)
heavy: not shown
light: DIVMTQSPLSLPVTPGEPASISCQASESLVHSNRNTYLHWYLQKPGQSPQLLIYKVSNRFSGVPDRFSGSGSGTDFTLKISRVEAEDVGVYYCSQNTHVPPTFGQGTKVEIERTVAAPSVFIFPPSDEQLKSGTASVVCLLNNFYPREAKVQWKVDNALQSGNSQESVTEQDSKDSTYSLSSTLTLSKADYEKHKVYACEVTHQGLSSPVTKSFNRGEC
notes: homodimerized IgG1, mutation in both H chains; also called Ho Ab
With B1, the Ho/Con_1a is 108 relative, control = 100.

B2: GpH7-B3 variant T335_18N/GpL16-k0 (antibody, human IgG1, kappa)
heavy: not shown
light: B1 light
notes: as for B1
On to B2, for which the Ho/Con_1a is 102 relative, control = 100.

B3: GpH7-B3 variant T335_07I/GpL16-k0 (antibody, human IgG1, kappa)
heavy: not shown
light: B1 light
notes: as for B1
For the molecule B3, the Ho/Con_1a was 105 relative, control = 100.

B4: GpH7-B3 variant T335_16H/GpL16-k0 (antibody, human IgG1, kappa)
heavy: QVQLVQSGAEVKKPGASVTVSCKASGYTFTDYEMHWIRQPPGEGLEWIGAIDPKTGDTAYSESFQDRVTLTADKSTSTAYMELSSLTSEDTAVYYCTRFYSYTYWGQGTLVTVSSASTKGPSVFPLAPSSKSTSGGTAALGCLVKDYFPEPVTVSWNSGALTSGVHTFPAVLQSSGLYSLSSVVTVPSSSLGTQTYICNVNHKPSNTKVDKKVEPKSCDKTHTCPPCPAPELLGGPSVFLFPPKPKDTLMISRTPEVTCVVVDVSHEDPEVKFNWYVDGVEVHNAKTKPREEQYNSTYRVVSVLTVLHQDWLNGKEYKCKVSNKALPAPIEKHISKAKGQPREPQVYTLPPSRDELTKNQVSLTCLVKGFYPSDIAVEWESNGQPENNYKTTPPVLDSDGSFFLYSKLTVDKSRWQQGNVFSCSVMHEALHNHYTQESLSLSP
light: B1 light
notes: as for B1
Regarding B4, the Ho/Con_1a was 104 relative, control = 100.

B5: GpH7-B3 variant T335_05P/GpL16-k0 (antibody, human IgG1, kappa)
heavy: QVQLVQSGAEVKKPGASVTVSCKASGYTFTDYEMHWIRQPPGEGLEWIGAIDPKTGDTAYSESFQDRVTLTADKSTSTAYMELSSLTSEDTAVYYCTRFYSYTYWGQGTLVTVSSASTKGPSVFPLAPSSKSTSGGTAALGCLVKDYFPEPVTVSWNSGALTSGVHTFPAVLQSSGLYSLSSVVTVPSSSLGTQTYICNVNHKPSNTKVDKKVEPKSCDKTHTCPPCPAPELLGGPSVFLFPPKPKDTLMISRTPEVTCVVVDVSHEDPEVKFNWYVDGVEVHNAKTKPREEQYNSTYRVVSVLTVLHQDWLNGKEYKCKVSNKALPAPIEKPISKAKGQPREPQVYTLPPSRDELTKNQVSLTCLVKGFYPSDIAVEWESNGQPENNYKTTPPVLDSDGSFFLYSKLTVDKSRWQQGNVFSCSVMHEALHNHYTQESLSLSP
light: B1 light
notes: as for B1
As to B5, the Ho/Con_1a is 106 relative, control = 100.

B6: GpH7-B3 variant I336_14T/GpL16-k0 (antibody, human IgG1, kappa)
heavy: not shown
light: B1 light
notes: as for B1
Regarding B6, the Ho/Con_1a is 111 relative, control = 100.

B7: GpH7-B3 variant S337_09D/GpL16-k0 (antibody, human IgG1, kappa)
heavy: not shown
light: B1 light
notes: as for B1
For B7, the Ho/Con_1a was 106 relative, control = 100.

B8: GpH7-B3 variant I336_12R/GpL16-k0 (antibody, human IgG1, kappa)
heavy: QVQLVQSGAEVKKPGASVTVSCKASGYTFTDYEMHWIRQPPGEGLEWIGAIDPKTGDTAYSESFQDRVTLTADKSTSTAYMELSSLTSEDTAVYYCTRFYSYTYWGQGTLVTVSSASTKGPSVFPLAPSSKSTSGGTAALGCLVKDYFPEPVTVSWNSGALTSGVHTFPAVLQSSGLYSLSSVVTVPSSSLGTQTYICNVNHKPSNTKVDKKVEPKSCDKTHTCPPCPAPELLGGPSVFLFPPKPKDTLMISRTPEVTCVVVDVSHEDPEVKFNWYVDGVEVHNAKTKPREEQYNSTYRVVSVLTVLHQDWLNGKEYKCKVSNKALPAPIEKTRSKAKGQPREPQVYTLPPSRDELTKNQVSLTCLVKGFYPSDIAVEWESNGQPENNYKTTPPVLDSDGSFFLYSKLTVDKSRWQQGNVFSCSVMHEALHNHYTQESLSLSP
light: B1 light
notes: as for B1
On to B8, for which the Ho/Con_1a was 109 relative, control = 100.

B9: GpH7-B3 variant T335_19Q/GpL16-k0 (antibody, human IgG1, kappa)
heavy: not shown
light: B1 light
notes: as for B1
Regarding B9, the Ho/Con_1a was 105 relative, control = 100.

B10: GpH7-B3 variant T335_09D/GpL16-k0 (antibody, human IgG1, kappa)
heavy: not shown
light: B1 light
notes: as for B1
Regarding B10, the Ho/Con_1a was 107 relative, control = 100.

B11: GpH7-B3 variant Y300_13S/GpL16-k0 (antibody, human IgG1, kappa)
heavy: not shown
light: B1 light
notes: as for B1
On to B11, for which the Ho/Con_1a is 110 relative, control = 100.

B12: GpH7-B3 variant I336_09D/GpL16-k0 (antibody, human IgG1, kappa)
heavy: not shown
light: B1 light
notes: as for B1
In the case of B12, the Ho/Con_1a is 108 relative, control = 100.

B13: GpH7-B3 variant T335_08L/GpL16-k0 (antibody, human IgG1, kappa)
heavy: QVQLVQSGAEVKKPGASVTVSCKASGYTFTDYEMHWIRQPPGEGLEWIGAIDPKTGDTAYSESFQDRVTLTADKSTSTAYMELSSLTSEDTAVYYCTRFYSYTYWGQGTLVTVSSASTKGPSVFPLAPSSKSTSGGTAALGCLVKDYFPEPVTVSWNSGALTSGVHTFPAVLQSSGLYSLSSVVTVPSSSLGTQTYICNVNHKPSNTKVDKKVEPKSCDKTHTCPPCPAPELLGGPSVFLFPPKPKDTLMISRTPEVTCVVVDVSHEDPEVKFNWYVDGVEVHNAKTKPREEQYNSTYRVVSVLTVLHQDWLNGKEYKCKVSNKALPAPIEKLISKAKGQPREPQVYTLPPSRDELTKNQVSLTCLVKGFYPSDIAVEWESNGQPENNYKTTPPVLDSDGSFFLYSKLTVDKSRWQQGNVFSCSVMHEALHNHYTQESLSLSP
light: B1 light
notes: as for B1
In the case of B13, the Ho/Con_1a is 105 relative, control = 100.

B14: GpH7-B3 variant S337_19Q/GpL16-k0 (antibody, human IgG1, kappa)
heavy: not shown
light: B1 light
notes: as for B1
For the molecule B14, the Ho/Con_1a was 105 relative, control = 100.

B15: GpH7-B3 variant I336_11K/GpL16-k0 (antibody, human IgG1, kappa)
heavy: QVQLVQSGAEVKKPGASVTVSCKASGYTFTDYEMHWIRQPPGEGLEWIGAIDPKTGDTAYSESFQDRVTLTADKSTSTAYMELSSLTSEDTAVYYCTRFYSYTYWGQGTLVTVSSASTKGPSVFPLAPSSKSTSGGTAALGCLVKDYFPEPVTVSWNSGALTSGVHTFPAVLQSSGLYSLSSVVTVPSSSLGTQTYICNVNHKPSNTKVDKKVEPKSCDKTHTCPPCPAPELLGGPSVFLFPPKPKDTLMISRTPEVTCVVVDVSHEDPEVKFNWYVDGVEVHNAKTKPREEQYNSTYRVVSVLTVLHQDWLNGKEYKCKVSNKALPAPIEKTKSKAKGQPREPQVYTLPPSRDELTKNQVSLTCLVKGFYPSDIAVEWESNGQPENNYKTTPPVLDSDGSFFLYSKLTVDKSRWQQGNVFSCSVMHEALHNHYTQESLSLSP
light: B1 light
notes: as for B1
Consider B15, for which the Ho/Con_1a was 107 relative, control = 100.

B16: GpH7-B3 variant Y300_03V/GpL16-k0 (antibody, human IgG1, kappa)
heavy: not shown
light: B1 light
notes: as for B1
For the molecule B16, the Ho/Con_1a is 112 relative, control = 100.

B17: GpH7-B3 variant S337_10E/GpL16-k0 (antibody, human IgG1, kappa)
heavy: not shown
light: B1 light
notes: as for B1
With B17, the Ho/Con_1a was 104 relative, control = 100.

B18: GpH7-B3 variant S337_07I/GpL16-k0 (antibody, human IgG1, kappa)
heavy: not shown
light: B1 light
notes: as for B1
As to B18, the Ho/Con_1a is 105 relative, control = 100.

B19: GpH7-B3 variant Y296_11K/GpL16-k0 (antibody, human IgG1, kappa)
heavy: not shown
light: B1 light
notes: as for B1
Turning to B19, the Ho/Con_1a is 102 relative, control = 100.

B20: GpH7-B3 variant T335_12R/GpL16-k0 (antibody, human IgG1, kappa)
heavy: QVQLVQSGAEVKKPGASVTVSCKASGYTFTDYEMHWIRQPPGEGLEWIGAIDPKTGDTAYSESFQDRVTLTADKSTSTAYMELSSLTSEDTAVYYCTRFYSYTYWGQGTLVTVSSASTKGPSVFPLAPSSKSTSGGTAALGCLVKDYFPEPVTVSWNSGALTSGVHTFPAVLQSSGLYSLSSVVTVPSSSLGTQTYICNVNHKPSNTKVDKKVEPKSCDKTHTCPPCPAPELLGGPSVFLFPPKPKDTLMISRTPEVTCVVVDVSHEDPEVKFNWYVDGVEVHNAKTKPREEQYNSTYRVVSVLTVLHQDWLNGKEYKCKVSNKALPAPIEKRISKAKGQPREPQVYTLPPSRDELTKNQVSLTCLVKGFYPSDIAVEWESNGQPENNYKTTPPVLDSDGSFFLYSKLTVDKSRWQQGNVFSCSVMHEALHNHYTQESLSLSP
light: B1 light
notes: as for B1
Consider B20, for which the Ho/Con_1a is 106 relative, control = 100.

B21: GpH7-B3 variant Y296_12R/GpL16-k0 (antibody, human IgG1, kappa)
heavy: not shown
light: B1 light
notes: as for B1
As for B21, the Ho/Con_1a was 103 relative, control = 100.

B22: GpH7-B3 variant Y300_11K/GpL16-k0 (antibody, human IgG1, kappa)
heavy: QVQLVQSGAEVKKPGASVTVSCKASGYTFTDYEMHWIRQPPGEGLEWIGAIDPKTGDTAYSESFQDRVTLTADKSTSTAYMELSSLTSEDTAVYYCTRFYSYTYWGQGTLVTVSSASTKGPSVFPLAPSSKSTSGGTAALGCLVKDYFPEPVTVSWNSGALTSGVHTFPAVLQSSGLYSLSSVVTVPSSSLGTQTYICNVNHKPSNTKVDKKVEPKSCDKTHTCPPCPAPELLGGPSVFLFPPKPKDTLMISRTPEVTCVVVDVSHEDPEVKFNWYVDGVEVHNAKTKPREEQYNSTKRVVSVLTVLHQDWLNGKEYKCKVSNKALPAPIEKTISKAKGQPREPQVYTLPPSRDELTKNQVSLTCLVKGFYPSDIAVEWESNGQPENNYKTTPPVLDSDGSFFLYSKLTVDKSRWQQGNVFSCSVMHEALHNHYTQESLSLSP
light: B1 light
notes: as for B1
Regarding B22, the Ho/Con_1a was 101 relative, control = 100.

B23: GpH7-B3 variant S337_08L/GpL16-k0 (antibody, human IgG1, kappa)
heavy: not shown
light: B1 light
notes: as for B1
As for B23, the Ho/Con_1a is 105 relative, control = 100.

B24: GpH7-B3 variant T335_10E/GpL16-k0 (antibody, human IgG1, kappa)
heavy: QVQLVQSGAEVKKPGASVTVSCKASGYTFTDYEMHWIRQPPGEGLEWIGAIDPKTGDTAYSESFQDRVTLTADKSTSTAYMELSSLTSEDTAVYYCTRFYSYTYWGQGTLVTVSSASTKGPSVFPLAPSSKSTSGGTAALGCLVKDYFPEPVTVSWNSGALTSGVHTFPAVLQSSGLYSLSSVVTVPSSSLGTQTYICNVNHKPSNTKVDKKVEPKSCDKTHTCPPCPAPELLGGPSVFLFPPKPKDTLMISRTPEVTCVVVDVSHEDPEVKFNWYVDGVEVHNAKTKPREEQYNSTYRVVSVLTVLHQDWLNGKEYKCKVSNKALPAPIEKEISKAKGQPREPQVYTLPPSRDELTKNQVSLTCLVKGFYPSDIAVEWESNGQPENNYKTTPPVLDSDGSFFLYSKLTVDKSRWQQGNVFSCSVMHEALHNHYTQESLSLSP
light: B1 light
notes: as for B1
For the molecule B24, the Ho/Con_1a is 108 relative, control = 100.

B25: GpH7-B3 variant I336_08L/GpL16-k0 (antibody, human IgG1, kappa)
heavy: not shown
light: B1 light
notes: as for B1
Turning to B25, the Ho/Con_1a was 109 relative, control = 100.

B26: GpH7-B3 variant Y296_20W/GpL16-k0 (antibody, human IgG1, kappa)
heavy: not shown
light: B1 light
notes: as for B1
Consider B26, for which the Ho/Con_1a was 106 relative, control = 100.

B27: GpH7-B3 variant S337_06M/GpL16-k0 (antibody, human IgG1, kappa)
heavy: not shown
light: B1 light
notes: as for B1
In the case of B27, the Ho/Con_1a was 102 relative, control = 100.

B28: GpH7-B3 variant S337_15Y/GpL16-k0 (antibody, human IgG1, kappa)
heavy: not shown
light: B1 light
notes: as for B1
Take B28: the Ho/Con_1a is 104 relative, control = 100.

B29: GpH7-B3 variant T335_20W/GpL16-k0 (antibody, human IgG1, kappa)
heavy: not shown
light: B1 light
notes: as for B1
On to B29, for which the Ho/Con_1a was 104 relative, control = 100.

B30: GpH7-B3 variant Y300_06M/GpL16-k0 (antibody, human IgG1, kappa)
heavy: not shown
light: B1 light
notes: as for B1
Consider B30, for which the Ho/Con_1a is 111 relative, control = 100.

B31: GpH7-B3 variant Y296_06M/GpL16-k0 (antibody, human IgG1, kappa)
heavy: not shown
light: B1 light
notes: as for B1
Regarding B31, the Ho/Con_1a is 104 relative, control = 100.

B32: GpH7-B3 variant Y296_16H/GpL16-k0 (antibody, human IgG1, kappa)
heavy: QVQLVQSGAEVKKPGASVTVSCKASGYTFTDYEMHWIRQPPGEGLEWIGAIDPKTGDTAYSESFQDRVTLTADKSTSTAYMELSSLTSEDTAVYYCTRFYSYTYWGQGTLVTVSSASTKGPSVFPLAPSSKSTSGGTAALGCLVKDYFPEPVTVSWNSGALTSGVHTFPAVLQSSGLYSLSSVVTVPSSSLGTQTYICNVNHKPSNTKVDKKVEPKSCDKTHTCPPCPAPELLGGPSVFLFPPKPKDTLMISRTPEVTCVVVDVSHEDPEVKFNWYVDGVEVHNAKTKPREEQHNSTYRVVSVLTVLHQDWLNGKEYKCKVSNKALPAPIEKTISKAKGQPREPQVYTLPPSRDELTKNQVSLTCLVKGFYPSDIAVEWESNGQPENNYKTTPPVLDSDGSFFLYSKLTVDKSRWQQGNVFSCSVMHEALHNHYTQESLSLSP
light: B1 light
notes: as for B1
For B32, the Ho/Con_1a was 105 relative, control = 100.

B33: GpH7-B3 variant Y300_08L/GpL16-k0 (antibody, human IgG1, kappa)
heavy: not shown
light: B1 light
notes: as for B1
With B33, the Ho/Con_1a is 109 relative, control = 100.

B34: GpH7-B3 variant S337_04F/GpL16-k0 (antibody, human IgG1, kappa)
heavy: not shown
light: B1 light
notes: as for B1
B34: the Ho/Con_1a was 105 relative, control = 100.

B35: GpH7-B3 variant T335_06M/GpL16-k0 (antibody, human IgG1, kappa)
heavy: not shown
light: B1 light
notes: as for B1
Take B35: the Ho/Con_1a is 106 relative, control = 100.

B36: GpH7-B3 variant I336_13S/GpL16-k0 (antibody, human IgG1, kappa)
heavy: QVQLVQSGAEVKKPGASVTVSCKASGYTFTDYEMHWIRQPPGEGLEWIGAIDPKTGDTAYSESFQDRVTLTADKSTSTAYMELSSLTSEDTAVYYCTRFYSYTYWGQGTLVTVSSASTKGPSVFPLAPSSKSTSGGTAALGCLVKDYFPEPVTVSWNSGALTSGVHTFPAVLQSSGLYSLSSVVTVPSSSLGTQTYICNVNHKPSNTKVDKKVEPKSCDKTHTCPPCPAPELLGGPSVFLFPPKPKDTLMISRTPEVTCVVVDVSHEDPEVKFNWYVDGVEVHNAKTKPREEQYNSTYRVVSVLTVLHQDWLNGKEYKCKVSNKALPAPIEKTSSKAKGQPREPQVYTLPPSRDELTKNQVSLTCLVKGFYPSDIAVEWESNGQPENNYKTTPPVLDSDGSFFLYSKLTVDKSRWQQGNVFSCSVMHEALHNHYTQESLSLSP
light: B1 light
notes: as for B1
Turning to B36, the Ho/Con_1a was 110 relative, control = 100.

B37: GpH7-B3 variant S337_20W/GpL16-k0 (antibody, human IgG1, kappa)
heavy: not shown
light: B1 light
notes: as for B1
As for B37, the Ho/Con_1a is 104 relative, control = 100.

B38: GpH7-B3 variant T335_15Y/GpL16-k0 (antibody, human IgG1, kappa)
heavy: not shown
light: B1 light
notes: as for B1
B38: the Ho/Con_1a was 106 relative, control = 100.

B39: GpH7-B3 variant T335_11K/GpL16-k0 (antibody, human IgG1, kappa)
heavy: not shown
light: B1 light
notes: as for B1
In the case of B39, the Ho/Con_1a was 103 relative, control = 100.

B40: GpH7-B3 variant Y300_02A/GpL16-k0 (antibody, human IgG1, kappa)
heavy: not shown
light: B1 light
notes: as for B1
For the molecule B40, the Ho/Con_1a was 110 relative, control = 100.
